{"source": "patent US7144986B2", "about": "“Polypeptides comprising IL-6 ligand binding receptor domains” (The United States of America as represented by the …, priority 1999, dated 2006)", "molecular_target": "recombinant human IL-6 (Homo sapiens, UniProt P05231)", "sequence (P05231 30-212)": "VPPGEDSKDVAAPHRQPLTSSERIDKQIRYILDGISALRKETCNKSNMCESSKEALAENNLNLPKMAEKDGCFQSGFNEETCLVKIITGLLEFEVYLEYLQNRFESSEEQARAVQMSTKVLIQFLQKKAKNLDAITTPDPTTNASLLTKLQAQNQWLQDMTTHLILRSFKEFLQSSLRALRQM", "test": "Binding of radioiodinated recombinant human IL-6 to synthetic peptide arrays in 96-well microtiter plates", "settings": "for Initial screening of IL-6 receptor primary sequence for binding of IL-6 ligand: receptor sequence taken 21 amino acid residues at a time", "protocol": "Synthetic peptide arrays were constructed in 96-well microtiter plates in accordance with the method set forth in WO 91/02714 (Saxinger), and used to test the binding of recombinant human IL-6 that had been labeled with radioactive iodine (radiolabeling by standard methods). After incubating the radiolabeled IL-6 ligand in a well with each synthetic peptide, a washing step was performed to remove unbound label, and the relative level of radioactivity remaining in each well of the plate was evaluated to determine the relative affinity of each peptide for IL-6 ligand.\nEach of the four binding domains was analyzed in detail, which is set forth in these examples. First, serial truncations (or nested truncations) were performed from each end of the peptides to determine the location of the critical binding residues within each domain. Second, each amino acid residue in the critical regions of each domain were serially replaced by an alaninyl residue to indicate whether the side-chain of the residue at each particular location is likely to be essential or important to the mechanism of binding.\nThis example employs essentially the same techniques as Examples 1–4 except that fragments of the β-chain of the IL-6 receptor are used. As is known in the art, the β-chain is shared by multiple receptors. Thus, the identified fragments here are effective inhibitors of a multiplicity of binding reactions in addition to the IL-6 ligand:IL-6 receptor interaction.", "key": {"[1]": {"settings": "Example 1, domain I peptides (IL-6 receptor residues 66–86): truncations and alanine replacements, radiolabeled IL-6 remaining after wash"}, "[2]": {"settings": "Example 4, domain IV peptides, D11–D57, separate experiment: truncations and alanine replacements"}, "[3]": {"settings": "Example 5, fragments of the β-chain of the IL-6 receptor"}, "[4]": {"settings": "Example 2, domain II peptides (IL-6 receptor residues 136–156): truncations and alanine replacements"}, "[5]": {"settings": "Example 3, domain III peptides (IL-6 receptor residues 246–266): truncations and alanine replacements"}}, "data": [{"substance": "AAGSHPSRWAGMGRRL [Peptide A6]", "values": [{"measurement": "Counts/minute bound", "setting": "[1]", "result": 1753, "unit": "Counts/minute"}]}, {"substance": "AAGSHPSRWAGMGRRLLLRSV [Peptide A1]", "values": [{"measurement": "Counts/minute bound", "setting": "[1]", "result": 10739, "unit": "Counts/minute"}, {"measurement": "Initial screening of IL-6 receptor primary sequence for binding of IL-6 ligand", "result": "active binding sequences"}]}, {"substance": "AAGSHPSRWAGMGRRLLLRSV [Peptide A17]", "values": [{"measurement": "Counts/minute bound", "setting": "[1]", "result": 10884, "unit": "Counts/minute"}]}, {"substance": "AAGSHPSRWAGMGRRLLLRSV [Peptide A33]", "values": [{"measurement": "Counts/minute bound", "setting": "[1]", "result": 10213, "unit": "Counts/minute"}]}, {"substance": "GGSLAFGTLLCIAIVLRFKKT [Peptide D5]", "values": [{"measurement": "Initial screening of IL-6 receptor primary sequence for binding of IL-6 ligand", "result": "active binding sequences"}]}, {"substance": "GGSLAFGTLLCIAIVLRFKKT [Peptide D11]", "values": [{"measurement": "Counts/minute bound", "setting": "[2]", "result": 20349, "unit": "Counts/minute"}]}, {"substance": "GGSLAFGTLLCIAIVLRFKKT [Peptide D27]", "values": [{"measurement": "Counts/minute bound", "setting": "[2]", "result": 21945, "unit": "Counts/minute"}]}, {"substance": "GGSLAFGTLLCIAIVLRFKKT [Peptide D43]", "values": [{"measurement": "Counts/minute bound", "setting": "[2]", "result": 20385, "unit": "Counts/minute"}]}, {"substance": "LRFKKT [Peptide D42]", "values": [{"measurement": "Counts/minute bound", "setting": "[2]", "result": 1958, "unit": "Counts/minute"}]}, {"substance": "LTCNILTFGQLEQNVYGITIISGL [Peptide E11]", "values": [{"measurement": "Counts/minute bound", "setting": "[3]", "result": 1816, "unit": "Counts/minute"}]}, {"substance": "PRSTPSLTTKAVLL [Peptide B8]", "values": [{"measurement": "Counts/minute bound", "setting": "[4]", "result": 1846, "unit": "Counts/minute"}]}, {"substance": "PRSTPSLTTKAVLLVRKFQNS [Peptide B1]", "values": [{"measurement": "Counts/minute bound", "setting": "[4]", "result": 10790, "unit": "Counts/minute"}, {"measurement": "Initial screening of IL-6 receptor primary sequence for binding of IL-6 ligand", "result": "active binding sequences"}]}, {"substance": "PRSTPSLTTKAVLLVRKFQNS [Peptide B17]", "values": [{"measurement": "Counts/minute bound", "setting": "[4]", "result": 12347, "unit": "Counts/minute"}]}, {"substance": "PRSTPSLTTKAVLLVRKFQNS [Peptide B33]", "values": [{"measurement": "Counts/minute bound", "setting": "[4]", "result": 11699, "unit": "Counts/minute"}]}, {"substance": "SDKAPCITDWQQEDGTVHRTYLRG [Peptide E47]", "values": [{"measurement": "Counts/minute bound", "setting": "[3]", "result": 2079, "unit": "Counts/minute"}]}, {"substance": "SSFYRLRFELRYRAERSKTFT [Peptide C1]", "values": [{"measurement": "Counts/minute bound", "setting": "[5]", "result": 14571, "unit": "Counts/minute"}, {"measurement": "Initial screening of IL-6 receptor primary sequence for binding of IL-6 ligand", "result": "active binding sequences"}]}, {"substance": "SSFYRLRFELRYRAERSKTFT [Peptide C17]", "values": [{"measurement": "Counts/minute bound", "setting": "[5]", "result": 15127, "unit": "Counts/minute"}]}, {"substance": "SSFYRLRFELRYRAERSKTFT [Peptide C33]", "values": [{"measurement": "Counts/minute bound", "setting": "[5]", "result": 14610, "unit": "Counts/minute"}]}, {"substance": "TKAVLLVRKFQNS [Peptide B25]", "values": [{"measurement": "Counts/minute bound", "setting": "[4]", "result": 5753, "unit": "Counts/minute"}]}, {"substance": "TKAVLLVRKFQNS [Peptide B26]", "values": [{"measurement": "Counts/minute bound", "setting": "[4]", "result": 5226, "unit": "Counts/minute"}]}]}
